Results reported in paper PMC3795024, “A Structure-Guided Mutation in the Major Capsid Protein Retargets BK Polyomavirus” (PLoS Pathogens, 2013).

Columns and labels:
SV40 VP1 = target: T1, SV40 VP1 (Betapolyomavirus macacae, UniProt P03087); experiment: STD NMR; type: binding; conditions: 19-22 µM protein, 1 mM ligand, pH 7.5, 283 K, D2O
T1 construct: recombinant VP1 pentamer, detected with anti-poly-histidine antibody

[1] = target: BKPyV VP1 pentamer (30-300) F75V (BK polyomavirus (BKPyV)); experiment: SEC; gel filtration of purified mutant pentamers; data not shown
[2] = target: BKPyV VP1 pentamer (30-300) F75W (BK polyomavirus (BKPyV)); experiment: as above
[3] = target: BKPyV VP1 pentamer (30-300) H138A (BK polyomavirus (BKPyV)); experiment: as above
[4] = target: BKPyV VP1 pentamer (30-300) L62W (BK polyomavirus (BKPyV)); experiment: as above
[5] = target: BKPyV VP1 pentamer (30-300) S274A (BK polyomavirus (BKPyV)); experiment: as above
[6] = target: BKPyV VP1 pentamer (30-300) S274A/T276A (BK polyomavirus (BKPyV)); experiment: as above
[7] = target: BKPyV VP1 pentamer (30-300) T276A (BK polyomavirus (BKPyV)); experiment: as above
[8] = target: BKPyV VP1 pentamer (amino acids 30-300 of BKPyV VP1, His-tag cleaved) (BK polyomavirus (BKPyV)); experiment: crystal structure; sitting drop vapor diffusion at 20°C, 16–18% PEG 3,350, 0.1 M HEPES pH 7.5, 0.25 M LiCl, protein with 20 mM DTT; unliganded and soaked with 20 mM GD3 oligosaccharide

**Q.** Which “STD NMR” value (SV40 VP1) does the source give for CC(=O)N[C@H]1[C@H](O[C@@H]2[C@H](O[C@]3(C(=O)O)C[C@H](O)[C@@H](NC(C)=O)[C@H]([C@H](O)[C@H](O)CO)O3)[C@@H](O)[C@H](O[C@H]3[C@H](O)[C@@H](O)C(O)O[C@@H]3CO)O[C@@H]2CO)O[C@H](CO)[C@H](O)[C@@H]1O[C@@H]1O[C@H](CO)[C@H](O)[C@H](O)[C@H]1O (stereo partly drawn) [GM1, GM1 oligosaccharide] here?
**A.** as efficient as for the SV40 VP1-GM1 pair, which was included for comparison

**Q.** Which stoichiometry N [1] does the source give for “BKPyV VP1 pentamer (30-300) F75V (domain or fragment)” here?
**A.** 5

**Q.** Which stoichiometry N [2] does the source give for “BKPyV VP1 pentamer (30-300) F75W (domain or fragment)” here?
**A.** 5

**Q.** Which stoichiometry N [3] does the source give for “BKPyV VP1 pentamer (30-300) H138A (domain or fragment)” here?
**A.** 5

**Q.** With “BKPyV VP1 pentamer (30-300) L62W (domain or fragment)” as the molecule, how does the stoichiometry N [4] read?
**A.** 5

**Q.** How did the stoichiometry N [5] turn out when “BKPyV VP1 pentamer (30-300) S274A (domain or fragment)” was run?
**A.** 5

**Q.** Which stoichiometry N [6] does the source give for “BKPyV VP1 pentamer (30-300) S274A/T276A (domain or fragment)” here?
**A.** 5

**Q.** How did the stoichiometry N [7] turn out when “BKPyV VP1 pentamer (30-300) T276A (domain or fragment)” was run?
**A.** 5

**Q.** With “BKPyV VP1 pentamer (amino acids 30-300 of BKPyV VP1, His-tag cleaved) (domain or fragment)” as the molecule, how does the stoichiometry N [8] read?
**A.** 5
